We go through 94 variants from the supplement of paper PMC10567573.

The labels stand for the following.
B1: FUNDC2 (parent)
chain: YIKVDWQRVEKDMKKAKEQLKIRK
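Note: lentivirally expressed fusions sorted by FACS into six bins by GFP to DsRed ratio, PSI derived from sequencing read proportions per bin multiplied by bin number.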

The variants in this series derive from B1. As to the kind of experiment: protein stability index of a GFP-peptide fusion (GPS, HEK-293T) (PSI 1-6); higher = more stable. To be noted: c terminus: a fixed tail appended.
Consider YSKVDWQRVEKDMKKAKEQLKIRK, for which the protein stability index was 3.37.

With YLKVDWQRVEKDMKKAKEQLKIRK, the protein stability index turned out to be 2.26.

On to YEKVDWQRVEKDMKKAKEQLKIRK, for which the protein stability index worked out at 4.42.

YKKVDWQRVEKDMKKAKEQLKIRK: the protein stability index is 3.35.

For the variant YPKVDWQRVEKDMKKAKEQLKIRK, the protein stability index turned out to be 2.54.

Take YNKVDWQRVEKDMKKAKEQLKIRK: the protein stability index was determined as 3.6.

As for YAKVDWQRVEKDMKKAKEQLKIRK, the protein stability index amounted to 3.35.

For YYKVDWQRVEKDMKKAKEQLKIRK, the protein stability index worked out at 3.

YGKVDWQRVEKDMKKAKEQLKIRK: the protein stability index worked out at 3.6.

In the case of YFKVDWQRVEKDMKKAKEQLKIRK, the protein stability index worked out at 2.74.

As to YDKVDWQRVEKDMKKAKEQLKIRK, the protein stability index was 3.58.

Regarding YRKVDWQRVEKDMKKAKEQLKIRK, the protein stability index amounted to 2.53.

As for YTKVDWQRVEKDMKKAKEQLKIRK, the protein stability index was 2.37.

Turning to YMKVDWQRVEKDMKKAKEQLKIRK, the protein stability index was found to be 4.03.

With YWKVDWQRVEKDMKKAKEQLKIRK, the protein stability index is 2.96.

Turning to YQKVDWQRVEKDMKKAKEQLKIRK, the protein stability index worked out at 1.75.

Regarding YVKVDWQRVEKDMKKAKEQLKIRK, the protein stability index turned out to be 1.83.

As to YCKVDWQRVEKDMKKAKEQLKIRK, the protein stability index was 1.93.

Regarding YIKVYWQRVEKDMKKAKEQLKIRK, the protein stability index worked out at 3.3.

On to YIKVLWQRVEKDMKKAKEQLKIRK, for which the protein stability index came out at 2.48.

Regarding YIKVRWQRVEKDMKKAKEQLKIRK, the protein stability index is 1.78.

YIKVWWQRVEKDMKKAKEQLKIRK: the protein stability index turned out to be 3.34.

Turning to YIKVPWQRVEKDMKKAKEQLKIRK, the protein stability index was 2.21.

As for YIKVCWQRVEKDMKKAKEQLKIRK, the protein stability index was found to be 1.03.

Turning to YIKVSWQRVEKDMKKAKEQLKIRK, the protein stability index came out at 1.47.

With YIKVTWQRVEKDMKKAKEQLKIRK, the protein stability index amounted to 2.29.

In the case of YIKVGWQRVEKDMKKAKEQLKIRK, the protein stability index stood at 2.43.

In the case of YIKVHWQRVEKDMKKAKEQLKIRK, the protein stability index was 1.64.

For the variant YIKVMWQRVEKDMKKAKEQLKIRK, the protein stability index came to 2.46.

Consider YIKVNWQRVEKDMKKAKEQLKIRK, for which the protein stability index was 2.19.

Consider YIKVFWQRVEKDMKKAKEQLKIRK, for which the protein stability index was found to be 2.33.

As to YIKVKWQRVEKDMKKAKEQLKIRK, the protein stability index turned out to be 2.1.

YIKVQWQRVEKDMKKAKEQLKIRK: the protein stability index came out at 1.62.

As for YIKVEWQRVEKDMKKAKEQLKIRK, the protein stability index was 1.52.

Regarding YIKVAWQRVEKDMKKAKEQLKIRK, the protein stability index was determined as 3.55.

IIKVDWQRVEKDMKKAKEQLKIRK: the protein stability index worked out at 2.21.

On to MIKVDWQRVEKDMKKAKEQLKIRK, for which the protein stability index turned out to be 2.63.

In the case of GIKVDWQRVEKDMKKAKEQLKIRK, the protein stability index came out at 4.26.

As for FIKVDWQRVEKDMKKAKEQLKIRK, the protein stability index came to 1.85.

As to HIKVDWQRVEKDMKKAKEQLKIRK, the protein stability index was determined as 3.34.

For the variant TIKVDWQRVEKDMKKAKEQLKIRK, the protein stability index is 3.07.

For KIKVDWQRVEKDMKKAKEQLKIRK, the protein stability index was determined as 3.09.

For the variant NIKVDWQRVEKDMKKAKEQLKIRK, the protein stability index stood at 3.7.

WIKVDWQRVEKDMKKAKEQLKIRK: the protein stability index came out at 1.99.

For the variant PIKVDWQRVEKDMKKAKEQLKIRK, the protein stability index was 3.81.

Consider QIKVDWQRVEKDMKKAKEQLKIRK, for which the protein stability index worked out at 3.49.

For SIKVDWQRVEKDMKKAKEQLKIRK, the protein stability index is 3.11.

Regarding DIKVDWQRVEKDMKKAKEQLKIRK, the protein stability index came to 4.17.

Consider VIKVDWQRVEKDMKKAKEQLKIRK, for which the protein stability index was 2.53.

In the case of RIKVDWQRVEKDMKKAKEQLKIRK, the protein stability index turned out to be 3.6.

Consider AIKVDWQRVEKDMKKAKEQLKIRK, for which the protein stability index was 2.98.

LIKVDWQRVEKDMKKAKEQLKIRK: the protein stability index was determined as 3.22.

As to EIKVDWQRVEKDMKKAKEQLKIRK, the protein stability index came to 4.15.

YIKVDWQKVEKDMKKAKEQLKIRK: the protein stability index came to 2.01.

With YIKVDWQNVEKDMKKAKEQLKIRK, the protein stability index came to 1.79.

Turning to YIKVDWQHVEKDMKKAKEQLKIRK, the protein stability index came out at 2.11.

In the case of YIKVDWQDVEKDMKKAKEQLKIRK, the protein stability index came to 2.05.

As for YIKVDWQSVEKDMKKAKEQLKIRK, the protein stability index is 1.96.

Consider YIKVDWQFVEKDMKKAKEQLKIRK, for which the protein stability index was 1.99.

YIKVDWQAVEKDMKKAKEQLKIRK: the protein stability index worked out at 2.35.

As to YIKVDWQTVEKDMKKAKEQLKIRK, the protein stability index was found to be 2.21.

Turning to YIKVDWQGVEKDMKKAKEQLKIRK, the protein stability index amounted to 1.71.

For YIKVDWQCVEKDMKKAKEQLKIRK, the protein stability index amounted to 1.04.

Turning to YIKVDWQVVEKDMKKAKEQLKIRK, the protein stability index is 1.74.

Turning to YIKVDWQQVEKDMKKAKEQLKIRK, the protein stability index turned out to be 1.68.

As for YIKVDWQIVEKDMKKAKEQLKIRK, the protein stability index amounted to 1.82.

In the case of YIKVDWQPVEKDMKKAKEQLKIRK, the protein stability index was 2.48.

For the variant YIKVDWQLVEKDMKKAKEQLKIRK, the protein stability index turned out to be 2.21.

As to YIKVDWQMVEKDMKKAKEQLKIRK, the protein stability index was found to be 2.35.

With YIKVDWQEVEKDMKKAKEQLKIRK, the protein stability index was found to be 2.15.

Take YIKVDWIRVEKDMKKAKEQLKIRK: the protein stability index was determined as 2.7.

For the variant YIKVDWLRVEKDMKKAKEQLKIRK, the protein stability index is 2.01.

With YIKVDWGRVEKDMKKAKEQLKIRK, the protein stability index is 2.9.

For the variant YIKVDWVRVEKDMKKAKEQLKIRK, the protein stability index was determined as 2.33.

In the case of YIKVDWFRVEKDMKKAKEQLKIRK, the protein stability index amounted to 2.84.

Turning to YIKVDWARVEKDMKKAKEQLKIRK, the protein stability index came out at 1.79.

YIKVDWYRVEKDMKKAKEQLKIRK: the protein stability index was determined as 1.69.

In the case of YIKVDWDRVEKDMKKAKEQLKIRK, the protein stability index amounted to 1.49.

As for YIKVDWHRVEKDMKKAKEQLKIRK, the protein stability index amounted to 1.45.

As to YIKVDWCRVEKDMKKAKEQLKIRK, the protein stability index is 2.41.

Consider YIKVDWSRVEKDMKKAKEQLKIRK, for which the protein stability index stood at 1.76.

Consider YIKVDWERVEKDMKKAKEQLKIRK, for which the protein stability index amounted to 1.92.

As for YIKVDWNRVEKDMKKAKEQLKIRK, the protein stability index is 2.47.

Take YIKVDWKRVEKDMKKAKEQLKIRK: the protein stability index was determined as 1.95.

For the variant YIKVDWRRVEKDMKKAKEQLKIRK, the protein stability index was found to be 1.43.

For YIKVDWTRVEKDMKKAKEQLKIRK, the protein stability index was determined as 1.73.

On to YIKVDWPRVEKDMKKAKEQLKIRK, for which the protein stability index turned out to be 1.37.

With YIKNDWQRVEKDMKKAKEQLKIRK, the protein stability index came to 2.13.

Regarding YIKLDWQRVEKDMKKAKEQLKIRK, the protein stability index came to 2.23.

As for YIKQDWQRVEKDMKKAKEQLKIRK, the protein stability index was determined as 1.83.

As for YIKHDWQRVEKDMKKAKEQLKIRK, the protein stability index was 2.52.

For YIKIDWQRVEKDMKKAKEQLKIRK, the protein stability index stood at 2.53.

Regarding YIKDDWQRVEKDMKKAKEQLKIRK, the protein stability index stood at 1.99.

Consider YIKFDWQRVEKDMKKAKEQLKIRK, for which the protein stability index came to 1.73.
